We go through one molecule from patent US20220289806A1 (CYTIMM THERAPEUTICS, published 2022).

In test [1] the target is T1, IL-2Rα in human Fc fusion protein format (ACROBiosystems) (human, UniProt P01589 22-217, limits assumed).
T1 construct: Bought reagent, captured on anti-Human IgG Fc Capture (AHC) sensors; also called CD25; not shown: human Fc
T1 sequence (looked up): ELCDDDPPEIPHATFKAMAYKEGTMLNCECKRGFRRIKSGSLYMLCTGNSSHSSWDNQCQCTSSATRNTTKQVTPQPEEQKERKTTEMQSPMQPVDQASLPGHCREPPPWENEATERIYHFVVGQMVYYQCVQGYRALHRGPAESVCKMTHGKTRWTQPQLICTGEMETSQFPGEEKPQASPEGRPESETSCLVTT
Nature of the test: Octet QKe (biolayer interferometry): IL-2Rα-human Fc on AHC sensors, serial dilutions of the IL-2 variant [cont.]. The source says: IL-2Rα or IL-2Rβ in human Fc fusion protein format (ACROBiosystems) were captured on anti-Human IgG Fc Capture (AHC) sensors. […] Dissociation was detected following transfer of sensors into wells containing buffer alone. Data were collected and analyzed by Octet User Software. For analysis of the kinetics constants, 1:1 curve fitting model was used.

For test [2], the target named is T2, IL-2Rαβγ on human T cells (human, UniProt P01589 22-272; P14784 27-551; P31785 23-369).
T2 sequence (looked up) 1: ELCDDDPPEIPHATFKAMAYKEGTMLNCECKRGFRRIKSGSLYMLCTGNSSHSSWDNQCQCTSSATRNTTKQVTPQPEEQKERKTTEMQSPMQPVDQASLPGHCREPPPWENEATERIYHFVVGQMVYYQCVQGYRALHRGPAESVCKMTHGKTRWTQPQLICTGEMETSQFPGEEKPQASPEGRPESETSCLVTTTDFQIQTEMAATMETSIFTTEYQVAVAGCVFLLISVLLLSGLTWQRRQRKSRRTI
T2 sequence (looked up) 2: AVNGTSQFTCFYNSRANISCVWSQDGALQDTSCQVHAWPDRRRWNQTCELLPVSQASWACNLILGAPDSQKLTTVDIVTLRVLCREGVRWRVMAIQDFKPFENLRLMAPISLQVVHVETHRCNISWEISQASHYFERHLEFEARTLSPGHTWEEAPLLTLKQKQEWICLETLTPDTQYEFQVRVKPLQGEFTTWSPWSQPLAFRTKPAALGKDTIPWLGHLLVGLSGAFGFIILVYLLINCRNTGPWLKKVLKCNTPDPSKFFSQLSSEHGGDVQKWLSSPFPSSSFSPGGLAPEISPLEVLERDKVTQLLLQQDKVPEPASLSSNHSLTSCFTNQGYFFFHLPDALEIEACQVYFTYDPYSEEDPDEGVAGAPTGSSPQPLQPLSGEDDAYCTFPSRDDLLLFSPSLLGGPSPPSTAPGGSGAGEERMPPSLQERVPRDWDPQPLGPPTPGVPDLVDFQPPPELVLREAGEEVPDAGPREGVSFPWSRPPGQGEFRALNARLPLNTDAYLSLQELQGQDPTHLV
T2 sequence (looked up) 3: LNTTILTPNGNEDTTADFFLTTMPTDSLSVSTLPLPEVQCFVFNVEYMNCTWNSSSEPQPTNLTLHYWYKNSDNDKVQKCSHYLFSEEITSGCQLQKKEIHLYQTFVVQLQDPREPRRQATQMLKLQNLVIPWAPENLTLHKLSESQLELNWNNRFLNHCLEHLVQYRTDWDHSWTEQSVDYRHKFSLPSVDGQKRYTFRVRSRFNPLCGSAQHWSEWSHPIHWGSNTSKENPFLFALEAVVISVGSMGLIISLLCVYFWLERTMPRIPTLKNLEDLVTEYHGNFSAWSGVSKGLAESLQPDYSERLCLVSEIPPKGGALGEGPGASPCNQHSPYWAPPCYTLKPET
The test can be described thus: cell-based or functional assay.

Test [3] addresses T3, IL-2Rβγ on human CD8+CD45RA+CD25low naïve T cells (human, UniProt P14784 27-551; P31785 23-369).
T3 sequence (looked up) 1: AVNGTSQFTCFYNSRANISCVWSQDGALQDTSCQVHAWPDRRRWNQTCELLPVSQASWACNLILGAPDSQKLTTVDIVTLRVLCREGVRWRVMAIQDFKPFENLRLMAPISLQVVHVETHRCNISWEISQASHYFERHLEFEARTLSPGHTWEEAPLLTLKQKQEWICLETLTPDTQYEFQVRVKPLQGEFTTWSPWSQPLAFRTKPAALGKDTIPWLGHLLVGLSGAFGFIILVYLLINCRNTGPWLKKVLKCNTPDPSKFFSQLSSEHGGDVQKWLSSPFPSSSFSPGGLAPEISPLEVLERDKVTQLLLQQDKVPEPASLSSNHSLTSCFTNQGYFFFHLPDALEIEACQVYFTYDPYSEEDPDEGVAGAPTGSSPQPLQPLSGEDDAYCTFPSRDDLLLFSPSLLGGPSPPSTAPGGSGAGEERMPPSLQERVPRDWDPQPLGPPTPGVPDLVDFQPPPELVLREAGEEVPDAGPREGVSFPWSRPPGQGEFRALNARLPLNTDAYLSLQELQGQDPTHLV
T3 sequence (looked up) 2: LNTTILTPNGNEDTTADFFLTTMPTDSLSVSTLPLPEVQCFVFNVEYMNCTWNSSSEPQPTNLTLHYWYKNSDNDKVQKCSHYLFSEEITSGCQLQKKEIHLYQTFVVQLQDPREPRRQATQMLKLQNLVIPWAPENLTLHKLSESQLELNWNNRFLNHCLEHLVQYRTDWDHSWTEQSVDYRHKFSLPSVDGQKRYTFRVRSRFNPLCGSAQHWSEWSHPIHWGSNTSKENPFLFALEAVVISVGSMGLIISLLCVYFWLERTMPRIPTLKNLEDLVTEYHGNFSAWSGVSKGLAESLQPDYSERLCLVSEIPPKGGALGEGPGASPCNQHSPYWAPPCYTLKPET
Nature of the test: cell-based or functional assay.

B1: Y31C-PEG20 + F42K (ligand)
chain: APTSSSTKKTQLQLEHLLLDLQMILNGINNCKNPKLTRMLTKKFYMPKKATELKHLQCLEEELKPLEEVLNLAQSKNFHLRPRDLISNINVIVLELKGSETTFMCEYADETATIVEFLNRWITFSQSIISTLT
modifications: maleimide-PEG 20K on Cys 31
notes: rhIL-2 (C125S) background with Y31C and F42K, PEGylated at Cys 31; not shown: His tag
On to B1, for which the binding result in test [1] is on record as “no binding (tested: not printed)”. Also, the “EC50 of STAT5 phosphorylation, CD25+CD4+ T (IL-2Rαβγ)” value in test [2] was found to be 1.65 µg/mL. For the same molecule, in test [3], the “EC50 of STAT5 phosphorylation, CD25-CD8+ naïve T (IL-2Rβγ)” value was found to be 1.6 µg/mL.
